According to patent US20210388110A1 (published 2021):
Where a chain is given by its changes, count along the chain named. Blank lines part the entries; values can stand above or below the binder they belong to.

Biological target: T1, soluble human GPC3 (human, UniProt P51654 25-563, limits assumed)
T1 construct: soluble human GPC3 as analyte; also called glypican 3
Experiment: SPR (Biacore), soluble human GPC3

T1 sequence (P51654 other isoform, or with tags, fused parts or gaps limits assumed, form in doubt): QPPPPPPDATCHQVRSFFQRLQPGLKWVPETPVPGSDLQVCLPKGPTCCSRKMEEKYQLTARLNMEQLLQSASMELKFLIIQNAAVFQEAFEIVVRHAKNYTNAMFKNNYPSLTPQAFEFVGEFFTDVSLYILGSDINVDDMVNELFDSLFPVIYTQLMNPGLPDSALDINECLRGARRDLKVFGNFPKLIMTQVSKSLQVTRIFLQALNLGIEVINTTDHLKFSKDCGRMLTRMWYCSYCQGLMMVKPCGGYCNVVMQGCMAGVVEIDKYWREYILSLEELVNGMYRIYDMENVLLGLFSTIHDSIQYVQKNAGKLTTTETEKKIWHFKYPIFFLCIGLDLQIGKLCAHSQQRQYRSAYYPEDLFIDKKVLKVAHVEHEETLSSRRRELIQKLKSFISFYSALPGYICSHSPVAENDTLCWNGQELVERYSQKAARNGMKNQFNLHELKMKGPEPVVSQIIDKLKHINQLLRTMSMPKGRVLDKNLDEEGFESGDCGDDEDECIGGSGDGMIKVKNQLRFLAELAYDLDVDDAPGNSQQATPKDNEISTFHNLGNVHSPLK

Kd: 3.97 nM
B1: H0610-G1dh/none-Hi-Kn010G3/L0000-k0 (antibody, human IgG1, kappa)
heavy: not shown
chain: EPKSSDKTHTCPPCPAPELLGGPSVFLFPPKPKDTLMISRTPEVTCVVVDVSHEDPEVKFNWYVDGVEVHNAKTKPREEQYNSTYRVVSVLTVLHQDWLNGKEYKCKVSNKALPAPIEKTISKAKGQPREPQVCTLPPSRDELTKNQVSLWCLVKGFYPSDIAVEWESNGQPENNYKTTPPVLDSDGSFFLYSKLTVDKSRWQQGNVFSCSVMHEALHNRYTQKSLSLSP
light: DIVMTQSPLSLPVTPGEPASISCRSSQSLVHSNRNTYLHWYQQKPGQAPRLLIYKVSNRFSGVPDRFSGSGSGTDFTLKISRVEAEDVGVYYCGQGTQVPYTFGQGTKLEIKRTVAAPSVFIFPPSDEQLKSGTASVVCLLNNFYPREAKVQWKVDNALQSGNSQESVTEQDSKDSTYSLSSTLTLSKADYEKHKVYACEVTHQGLSSPVTKSFNRGEC
notes: single-arm (one Fab)

Kd: 0.517 nM
B2: GCH054-G1dh/none-Hi-Kn010G3/L0212-k0 (antibody, human IgG1, kappa)
heavy: not shown
chain: B1 chain
light: B1 light with S25P, L29P, G94Y
notes: single-arm (one Fab)

Kd: 4.14 nM
B3: GCH064-G1dh/none-Hi-Kn010G3/L0000-k0 (antibody, human IgG1, kappa)
heavy: not shown
chain: B1 chain
light: B1 light
notes: single-arm (one Fab)

Kd: 3.73 nM
B4: GCH062-G1dh/none-Hi-Kn010G3/L0000-k0 (antibody, human IgG1, kappa)
heavy: not shown
chain: B1 chain
light: B1 light
notes: single-arm (one Fab)

Kd: 0.000525 nM
B5: GCH054-G1dh/none-Hi-Kn010G3/L0262-k0 (antibody, human IgG1, kappa)
heavy: not shown
chain: B1 chain
light: B1 light with S28P, L29P, G94A
notes: single-arm (one Fab)

Kd: 0.00361 nM
B6: GCH054-G1dh/none-Hi-Kn010G3/L0249-k0 (antibody, human IgG1, kappa)
heavy: not shown
chain: B1 chain
light: B1 light with S25P, L29P, L38I, H39Q, G94S
notes: single-arm (one Fab)

Kd: 1.16 nM
B7: GCH056-G1dh/none-Hi-Kn010G3/L0201-k0 (antibody, human IgG1, kappa)
heavy: not shown
chain: B1 chain
light: B1 light with S28P, L29P
notes: single-arm (one Fab)

Kd: 4.36 nM
B8: GCH019-G1dh/none-Hi-Kn010G3/L0000-k0 (antibody, human IgG1, kappa)
heavy: not shown
chain: B1 chain
light: B1 light
notes: single-arm (one Fab)

Kd: 0.763 nM
B9: GCH054-G1dh/none-Hi-Kn010G3/TR01L016-k0 (antibody, human IgG1, kappa)
heavy: not shown
chain: B1 chain
light: B1 light with L29P, Q42L, A48S, R50Q, G94Y
notes: single-arm (one Fab)

Kd: 4.93 nM
B10: GCH007-G1dh/none-Hi-Kn010G3/L0000-k0 (antibody, human IgG1, kappa)
heavy: not shown
chain: B1 chain
light: B1 light
notes: single-arm (one Fab)

Kd: 0.000642 nM
B11: GCH060-G1dh/none-Hi-Kn010G3/L0222-k0 (antibody, human IgG1, kappa)
heavy: not shown
chain: B1 chain
light: B1 light with L29P, L38I, H39Q, G94Y
notes: single-arm (one Fab)

Kd: 4.59 nM
B12: GCH016-G1dh/none-Hi-Kn010G3/L0000-k0 (antibody, human IgG1, kappa)
heavy: not shown
chain: B1 chain
light: B1 light
notes: single-arm (one Fab)

Kd: 2.48 nM
B13: GCH054-G1dh/none-Hi-Kn010G3/L0203-k0 (antibody, human IgG1, kappa)
heavy: not shown
chain: B1 chain
light: B1 light with L29P, L38I
notes: single-arm (one Fab)

Kd: 1.59 nM
B14: GCH056-G1dh/none-Hi-Kn010G3/L0215-k0 (antibody, human IgG1, kappa)
heavy: not shown
chain: B1 chain
light: B1 light with S28P, L29P, L38I
notes: single-arm (one Fab)

Kd: 4.14 nM
B15: GCH015-G1dh/none-Hi-Kn010G3/L0000-k0 (antibody, human IgG1, kappa)
heavy: not shown
chain: B1 chain
light: B1 light
notes: single-arm (one Fab)

Kd: 3.83 nM
B16: GCH027-G1dh/none-Hi-Kn010G3/L0000-k0 (antibody, human IgG1, kappa)
heavy: not shown
chain: B1 chain
light: B1 light
notes: single-arm (one Fab)

Kd: 0.884 nM
B17: GCH065-G1dh/none-Hi-Kn010G3/L0011-k0 (antibody, human IgG1, kappa)
heavy: not shown
chain: B1 chain
light: B1 light with S28P
notes: single-arm (one Fab)

Kd: 0.0039 nM
B18: GCH055-G1dh/none-Hi-Kn010G3/L0222-k0 (antibody, human IgG1, kappa)
heavy: not shown
chain: B1 chain
light: B1 light with L29P, L38I, H39Q, G94Y
notes: single-arm (one Fab)

Kd: 0.0119 nM
B19: GCH056-G1dh/none-Hi-Kn010G3/L0262-k0 (antibody, human IgG1, kappa)
heavy: not shown
chain: B1 chain
light: B1 light with S28P, L29P, G94A
notes: single-arm (one Fab)

Kd: 1.83 nM
B20: GCH057-G1dh/none-Hi-Kn010G3/L0215-k0 (antibody, human IgG1, kappa)
heavy: not shown
chain: B1 chain
light: B1 light with S28P, L29P, L38I
notes: single-arm (one Fab)

Kd: 4.94 nM
B21: GCH035-G1dh/none-Hi-Kn010G3/L0000-k0 (antibody, human IgG1, kappa)
heavy: not shown
chain: B1 chain
light: B1 light
notes: single-arm (one Fab)

Kd: 1.08 nM
B22: GCH054-G1dh/none-Hi-Kn010G3/L0201-k0 (antibody, human IgG1, kappa)
heavy: not shown
chain: B1 chain
light: B1 light with S28P, L29P
notes: single-arm (one Fab)

Kd: 4.8 nM
B23: GCH040-G1dh/none-Hi-Kn010G3/L0000-k0 (antibody, human IgG1, kappa)
heavy: not shown
chain: B1 chain
light: B1 light
notes: single-arm (one Fab)

Kd: 0.0315 nM
B24: GCH054-G1dh/none-Hi-Kn010G3/L0246-k0 (antibody, human IgG1, kappa)
heavy: not shown
chain: B1 chain
light: B1 light with L29P, L38I, H39Q, G94S
notes: single-arm (one Fab)

Kd: 1.34 nM
B25: GCH060-G1dh/none-Hi-Kn010G3/L0200-k0 (antibody, human IgG1, kappa)
heavy: not shown
chain: B1 chain
light: B1 light with S25P, L29P
notes: single-arm (one Fab)

Kd: 1.62 nM
B26: GCH054-G1dh/none-Hi-Kn010G3/L0215-k0 (antibody, human IgG1, kappa)
heavy: not shown
chain: B1 chain
light: B1 light with S28P, L29P, L38I
notes: single-arm (one Fab)

Kd: 4.06 nM
B27: GCH006-G1dh/none-Hi-Kn010G3/L0000-k0 (antibody, human IgG1, kappa)
heavy: not shown
chain: B1 chain
light: B1 light
notes: single-arm (one Fab)

Kd: 1.52 nM
B28: GCH055-G1dh/none-Hi-Kn010G3/L0215-k0 (antibody, human IgG1, kappa)
heavy: not shown
chain: B1 chain
light: B1 light with S28P, L29P, L38I
notes: single-arm (one Fab)

Kd: 2.59 nM
B29: GCH054-G1dh/none-Hi-Kn010G3/TR01L018-k0 (antibody, human IgG1, kappa)
heavy: not shown
chain: B1 chain
light: B1 light with R24Q, S25A, Q27E, L29P, Q42L, A48S, R50Q
notes: single-arm (one Fab)

Kd: 4.05 nM
B30: GCH053-G1dh/none-Hi-Kn010G3/L0000-k0 (antibody, human IgG1, kappa)
heavy: not shown
chain: B1 chain
light: B1 light
notes: single-arm (one Fab)

Kd: 4.89 nM
B31: GCH042-G1dh/none-Hi-Kn010G3/L0000-k0 (antibody, human IgG1, kappa)
heavy: not shown
chain: B1 chain
light: B1 light
notes: single-arm (one Fab)

Kd: 2.45 nM
B32: GCH054-G1dh/none-Hi-Kn010G3/TR01L015-k0 (antibody, human IgG1, kappa)
heavy: not shown
chain: B1 chain
light: B1 light with L29P, Q42L, A48S, R50Q
notes: single-arm (one Fab)

Kd: 3.74 nM
B33: GCH043-G1dh/none-Hi-Kn010G3/L0000-k0 (antibody, human IgG1, kappa)
heavy: not shown
chain: B1 chain
light: B1 light
notes: single-arm (one Fab)

Kd: 1.13 nM
B34: GCH055-G1dh/none-Hi-Kn010G3/L0200-k0 (antibody, human IgG1, kappa)
heavy: not shown
chain: B1 chain
light: B1 light with S25P, L29P
notes: single-arm (one Fab)

Kd: 0.67 nM
B35: GCH025-G1dh/none-Hi-Kn010G3/L0204-k0 (antibody, human IgG1, kappa)
heavy: not shown
chain: B1 chain
light: B1 light with L29P, S61R
notes: single-arm (one Fab)

Kd: 4.95 nM
B36: GCH039-G1dh/none-Hi-Kn010G3/L0000-k0 (antibody, human IgG1, kappa)
heavy: not shown
chain: B1 chain
light: B1 light
notes: single-arm (one Fab)

Kd: 4.12 nM
B37: GCH010-G1dh/none-Hi-Kn010G3/L0000-k0 (antibody, human IgG1, kappa)
heavy: not shown
chain: B1 chain
light: B1 light
notes: single-arm (one Fab)

Kd: 0.0315 nM
B38: GCH054-G1dh/none-Hi-Kn010G3/L0222-k0 (antibody, human IgG1, kappa)
heavy: not shown
chain: B1 chain
light: B1 light with L29P, L38I, H39Q, G94Y
notes: single-arm (one Fab)

Kd: 1.18 nM
B39: GCH054-G1dh/none-Hi-Kn010G3/L0200-k0 (antibody, human IgG1, kappa)
heavy: not shown
chain: B1 chain
light: B1 light with S25P, L29P
notes: single-arm (one Fab)

Kd: 0.614 nM
B40: GCH055-G1dh/none-Hi-Kn010G3/L0212-k0 (antibody, human IgG1, kappa)
heavy: not shown
chain: B1 chain
light: B1 light with S25P, L29P, G94Y
notes: single-arm (one Fab)

Kd: 0.00185 nM
B41: GCH057-G1dh/none-Hi-Kn010G3/L0222-k0 (antibody, human IgG1, kappa)
heavy: not shown
chain: B1 chain
light: B1 light with L29P, L38I, H39Q, G94Y
notes: single-arm (one Fab)

Kd: 5.01 nM
B42: GCH029-G1dh/none-Hi-Kn010G3/L0000-k0 (antibody, human IgG1, kappa)
heavy: not shown
chain: B1 chain
light: B1 light
notes: single-arm (one Fab)

Kd: 4.63 nM
B43: GCH045-G1dh/none-Hi-Kn010G3/L0000-k0 (antibody, human IgG1, kappa)
heavy: not shown
chain: B1 chain
light: B1 light
notes: single-arm (one Fab)

Kd: 1.41 nM
B44: GCH065-G1dh/none-Hi-Kn010G3/L0000-k0 (antibody, human IgG1, kappa)
heavy: not shown
chain: B1 chain
light: B1 light
notes: single-arm (one Fab)

Kd: 4.44 nM
B45: GCH013-G1dh/none-Hi-Kn010G3/L0000-k0 (antibody, human IgG1, kappa)
heavy: not shown
chain: B1 chain
light: B1 light
notes: single-arm (one Fab)

Kd: 0.871 nM
B46: GCH054-G1dh/none-Hi-Kn010G3/TR01L019-k0 (antibody, human IgG1, kappa)
heavy: not shown
chain: B1 chain
light: B1 light with R24Q, S25A, Q27E, L29P, Q42L, A48S, R50Q, G94Y
notes: single-arm (one Fab)

Kd: 4.2 nM
B47: GCH014-G1dh/none-Hi-Kn010G3/L0000-k0 (antibody, human IgG1, kappa)
heavy: not shown
chain: B1 chain
light: B1 light
notes: single-arm (one Fab)
